Consider 1 molecule from patent US20190048340 (CRISPR Therapeutics AG, published 2019).

This series concerns the target Cpf1 (FnCpf1, FTN_1397) wild type (Francisella novicida U112, UniProt A0Q7Q2 SEQ:1-1300). The series can be described thus: EMSA; PAM YTN (TTA); 37 C. Particulars: tags: N-terminal 6xHis (pET-16b); label: 5'-32P; repeat hairpin.

Cpf1 (FnCpf1, FTN_1397) wild type, sequence (A0Q7Q2 whole entry): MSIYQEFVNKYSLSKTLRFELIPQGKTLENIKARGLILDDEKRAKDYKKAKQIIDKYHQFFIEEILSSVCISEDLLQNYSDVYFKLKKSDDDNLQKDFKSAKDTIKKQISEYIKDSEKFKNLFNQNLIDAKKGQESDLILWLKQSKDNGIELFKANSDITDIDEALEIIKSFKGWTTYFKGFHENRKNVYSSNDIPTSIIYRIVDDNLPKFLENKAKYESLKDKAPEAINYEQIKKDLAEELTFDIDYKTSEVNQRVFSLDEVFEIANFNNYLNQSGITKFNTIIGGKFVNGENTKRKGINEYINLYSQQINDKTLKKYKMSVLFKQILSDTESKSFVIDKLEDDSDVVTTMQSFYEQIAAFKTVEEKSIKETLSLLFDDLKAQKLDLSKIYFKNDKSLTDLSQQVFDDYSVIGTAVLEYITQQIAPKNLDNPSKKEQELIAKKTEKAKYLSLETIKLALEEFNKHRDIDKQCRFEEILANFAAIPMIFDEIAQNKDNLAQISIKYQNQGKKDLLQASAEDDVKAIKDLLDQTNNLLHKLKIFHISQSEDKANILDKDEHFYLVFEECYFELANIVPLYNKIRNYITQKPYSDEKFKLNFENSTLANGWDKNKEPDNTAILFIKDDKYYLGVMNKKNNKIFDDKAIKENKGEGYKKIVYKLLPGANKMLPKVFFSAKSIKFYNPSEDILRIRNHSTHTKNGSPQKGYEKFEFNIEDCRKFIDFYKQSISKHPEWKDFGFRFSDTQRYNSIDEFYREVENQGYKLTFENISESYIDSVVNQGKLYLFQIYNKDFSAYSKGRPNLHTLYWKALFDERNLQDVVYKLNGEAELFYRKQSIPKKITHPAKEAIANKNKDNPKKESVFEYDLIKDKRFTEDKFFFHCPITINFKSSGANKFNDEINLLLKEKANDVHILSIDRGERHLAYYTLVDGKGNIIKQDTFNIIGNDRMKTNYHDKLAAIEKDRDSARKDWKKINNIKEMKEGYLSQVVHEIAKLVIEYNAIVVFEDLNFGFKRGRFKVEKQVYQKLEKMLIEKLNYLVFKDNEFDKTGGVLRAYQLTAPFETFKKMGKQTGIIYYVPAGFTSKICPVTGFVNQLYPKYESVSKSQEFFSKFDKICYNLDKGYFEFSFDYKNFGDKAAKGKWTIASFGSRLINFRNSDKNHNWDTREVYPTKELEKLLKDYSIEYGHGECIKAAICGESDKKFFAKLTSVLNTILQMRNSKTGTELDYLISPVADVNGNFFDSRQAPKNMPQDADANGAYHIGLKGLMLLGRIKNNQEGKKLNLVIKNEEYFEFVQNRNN

B1: crRNA-sp5 repeat-spacer full-length (RNA 4); ref is antisense T7 transcription template ; Psp5 oligonucleotide duplex (ssRNA ; dsDNA)
RNA: GGGUCUAAGAACUUUAAAUAAUUUCUACUGUUGUAGAUAGAUUAAAAGGUAAUUCUAUCUUGUUGAG
DNA 1: AGCTGTAGCAAATATTAATCATATAGAAGAAAGCTCAGATCTCAACAAGATAGAATTACCTTTTAATCTTAAATTATTATATCCAGAAACTATTGATGGTAATTTACTTATC
DNA 2: AGCTGATAAGTAAATTACCATCAATAGTTTCTGGATATAATAATTTAAGATTAAAAGGTAATTCTATCTTGTTGAGATCTGAGCTTTCTTCTATATGATTAATATTTGCTAC
As usually defined, the Kd is the concentration at which binding is half-saturated. Turning to B1, the affinity, expressed as Kd, was 50 nM.
